Data from the supplement of paper PMC10567573.

B1: RHOBTB3 (parent)
chain: GGADIIVIKYNVNDKFSFHEVKDN
B2: SNAP91 (parent)
chain: FSTDAFSSPPQGASPVPESSLTAD

Variants of: B1
Assay: protein stability index of a GFP-peptide fusion (GPS, HEK-293T) (PSI 1-6); higher = more stable
Conditions: c terminus: a fixed tail appended
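Note: lentivirally expressed fusions sorted by FACS into six bins by GFP to DsRed ratio, PSI derived from sequencing read proportions per bin multiplied by bin number.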

Variant	protein stability index
GGADIIVIKYNVNDKFSFHEEKDN [V21E]	1.37
GGADIIVIKYNVNDKFSFHEFKDN [V21F]	3.01
GGADIIVIKYNVNDKFSFHEGKDN [V21G]	3.4
GGADIIVIKYNVNDKFSFHEHKDN [V21H]	2.15
GGADIIVIKYNVNDKFSFHEIKDN [V21I]	2.23
GGADIIVIKYNVNDKFSFHEKKDN [V21K]	2.59
GGADIIVIKYNVNDKFSFHELKDN [V21L]	2.72
GGADIIVIKYNVNDKFSFHEMKDN [V21M]	3.97
GGADIIVIKYNVNDKFSFHENKDN [V21N]	1.66
GGADIIVIKYNVNDKFSFHEPKDN [V21P]	2.01
GGADIIVIKYNVNDKFSFHEQKDN [V21Q]	2.29
GGADIIVIKYNVNDKFSFHERKDN [V21R]	2.42
GGADIIVIKYNVNDKFSFHESKDN [V21S]	2.5
GGADIIVIKYNVNDKFSFHETKDN [V21T]	1.46
GGADIIVIKYNVNDKFSFHEWKDN [V21W]	2.15
GGADIIVIKYNVNDKFSFHEYKDN [V21Y]	2.98
GGADIIVIKYNVNDKFSFHEVADN [K22A]	2.89
GGADIIVIKYNVNDKFSFHEVCDN [K22C]	2.88
GGADIIVIKYNVNDKFSFHEVDDN [K22D]	2.36
GGADIIVIKYNVNDKFSFHEVEDN [K22E]	3.13
GGADIIVIKYNVNDKFSFHEVFDN [K22F]	4.16
GGADIIVIKYNVNDKFSFHEVGDN [K22G]	2.76

Variant	protein stability index
GGADIIVIKYNVNDKFSFHEVHDN [K22H]	3.97
GGADIIVIKYNVNDKFSFHEVLDN [K22L]	2.43
GGADIIVIKYNVNDKFSFHEVMDN [K22M]	2.35
GGADIIVIKYNVNDKFSFHEVNDN [K22N]	2.1
GGADIIVIKYNVNDKFSFHEVPDN [K22P]	3.07
GGADIIVIKYNVNDKFSFHEVQDN [K22Q]	2.01
GGADIIVIKYNVNDKFSFHEVRDN [K22R]	2.61
GGADIIVIKYNVNDKFSFHEVSDN [K22S]	2.52
GGADIIVIKYNVNDKFSFHEVTDN [K22T]	2.58
GGADIIVIKYNVNDKFSFHEVVDN [K22V]	3.25
GGADIIVIKYNVNDKFSFHEVWDN [K22W]	2.75
GGADIIVIKYNVNDKFSFHEVYDN [K22Y]	3.11
GGADIIVIKYNVNDKFSFHEVKAN [D23A]	2.71
GGADIIVIKYNVNDKFSFHEVKCN [D23C]	2.08
GGADIIVIKYNVNDKFSFHEVKEN [D23E]	2.68
GGADIIVIKYNVNDKFSFHEVKGN [D23G]	2.34
GGADIIVIKYNVNDKFSFHEVKHN [D23H]	3.28
GGADIIVIKYNVNDKFSFHEVKIN [D23I]	2.36
GGADIIVIKYNVNDKFSFHEVKLN [D23L]	3.42
GGADIIVIKYNVNDKFSFHEVKMN [D23M]	2.02
GGADIIVIKYNVNDKFSFHEVKNN [D23N]	2.44
GGADIIVIKYNVNDKFSFHEVKPN [D23P]	3.16

Variant	protein stability index
GGADIIVIKYNVNDKFSFHEVKQN [D23Q]	2.76
GGADIIVIKYNVNDKFSFHEVKSN [D23S]	2.21
GGADIIVIKYNVNDKFSFHEVKTN [D23T]	4.21
GGADIIVIKYNVNDKFSFHEVKVN [D23V]	2.83
GGADIIVIKYNVNDKFSFHEVKWN [D23W]	3.21
GGADIIVIKYNVNDKFSFHEVKYN [D23Y]	2.28
GGADIIVIKYNVNDKFSFHEVKDA [N24A]	2.09
GGADIIVIKYNVNDKFSFHEVKDC [N24C]	2.34
GGADIIVIKYNVNDKFSFHEVKDD [N24D]	1.94
GGADIIVIKYNVNDKFSFHEVKDE [N24E]	1.44
GGADIIVIKYNVNDKFSFHEVKDF [N24F]	3.49
GGADIIVIKYNVNDKFSFHEVKDG [N24G]	3
GGADIIVIKYNVNDKFSFHEVKDH [N24H]	2.14
GGADIIVIKYNVNDKFSFHEVKDI [N24I]	2.21
GGADIIVIKYNVNDKFSFHEVKDK [N24K]	2.73
GGADIIVIKYNVNDKFSFHEVKDL [N24L]	3.07
GGADIIVIKYNVNDKFSFHEVKDM [N24M]	3.25
GGADIIVIKYNVNDKFSFHEVKDR [N24R]	1.86
GGADIIVIKYNVNDKFSFHEVKDS [N24S]	2.71
GGADIIVIKYNVNDKFSFHEVKDT [N24T]	4.04
GGADIIVIKYNVNDKFSFHEVKDV [N24V]	3.86

Variants of: B2
Assay: as above
Conditions: c terminus: a fixed tail appended

Variant	protein stability index
ASTDAFSSPPQGASPVPESSLTAD [F1A]	5.73
CSTDAFSSPPQGASPVPESSLTAD [F1C]	5.07
DSTDAFSSPPQGASPVPESSLTAD [F1D]	5.72
ESTDAFSSPPQGASPVPESSLTAD [F1E]	5.47
GSTDAFSSPPQGASPVPESSLTAD [F1G]	5.54
HSTDAFSSPPQGASPVPESSLTAD [F1H]	5.37
ISTDAFSSPPQGASPVPESSLTAD [F1I]	5.36
KSTDAFSSPPQGASPVPESSLTAD [F1K]	5.34
LSTDAFSSPPQGASPVPESSLTAD [F1L]	5.57
MSTDAFSSPPQGASPVPESSLTAD [F1M]	5.44
NSTDAFSSPPQGASPVPESSLTAD [F1N]	5.74
PSTDAFSSPPQGASPVPESSLTAD [F1P]	5.68
QSTDAFSSPPQGASPVPESSLTAD [F1Q]	5.64
RSTDAFSSPPQGASPVPESSLTAD [F1R]	5.39
SSTDAFSSPPQGASPVPESSLTAD [F1S]	5.65
TSTDAFSSPPQGASPVPESSLTAD [F1T]	5.55
VSTDAFSSPPQGASPVPESSLTAD [F1V]	5.52
WSTDAFSSPPQGASPVPESSLTAD [F1W]	5.19
YSTDAFSSPPQGASPVPESSLTAD [F1Y]	3.31
FATDAFSSPPQGASPVPESSLTAD [S2A]	2.09
FCTDAFSSPPQGASPVPESSLTAD [S2C]	2.46
FDTDAFSSPPQGASPVPESSLTAD [S2D]	5.7
FETDAFSSPPQGASPVPESSLTAD [S2E]	5.52
FFTDAFSSPPQGASPVPESSLTAD [S2F]	3.96
FGTDAFSSPPQGASPVPESSLTAD [S2G]	2.8
FHTDAFSSPPQGASPVPESSLTAD [S2H]	2.15
FITDAFSSPPQGASPVPESSLTAD [S2I]	1.64
FKTDAFSSPPQGASPVPESSLTAD [S2K]	5.08
FLTDAFSSPPQGASPVPESSLTAD [S2L]	3.34
